Test results reported in patent EP2133098A1 (Maxygen Holdings Ltd, dated 2009).
Where a chain is given by its changes, count along the chain named. Numbers in names are those of the source. One block for each binder: values may come before it.

Columns and labels:
human G-CSF receptor [1] = biological target: T1, human G-CSF receptor (human, UniProt Q99062 25-836); assay: cell-based or functional assay
T1 sequence (looked up): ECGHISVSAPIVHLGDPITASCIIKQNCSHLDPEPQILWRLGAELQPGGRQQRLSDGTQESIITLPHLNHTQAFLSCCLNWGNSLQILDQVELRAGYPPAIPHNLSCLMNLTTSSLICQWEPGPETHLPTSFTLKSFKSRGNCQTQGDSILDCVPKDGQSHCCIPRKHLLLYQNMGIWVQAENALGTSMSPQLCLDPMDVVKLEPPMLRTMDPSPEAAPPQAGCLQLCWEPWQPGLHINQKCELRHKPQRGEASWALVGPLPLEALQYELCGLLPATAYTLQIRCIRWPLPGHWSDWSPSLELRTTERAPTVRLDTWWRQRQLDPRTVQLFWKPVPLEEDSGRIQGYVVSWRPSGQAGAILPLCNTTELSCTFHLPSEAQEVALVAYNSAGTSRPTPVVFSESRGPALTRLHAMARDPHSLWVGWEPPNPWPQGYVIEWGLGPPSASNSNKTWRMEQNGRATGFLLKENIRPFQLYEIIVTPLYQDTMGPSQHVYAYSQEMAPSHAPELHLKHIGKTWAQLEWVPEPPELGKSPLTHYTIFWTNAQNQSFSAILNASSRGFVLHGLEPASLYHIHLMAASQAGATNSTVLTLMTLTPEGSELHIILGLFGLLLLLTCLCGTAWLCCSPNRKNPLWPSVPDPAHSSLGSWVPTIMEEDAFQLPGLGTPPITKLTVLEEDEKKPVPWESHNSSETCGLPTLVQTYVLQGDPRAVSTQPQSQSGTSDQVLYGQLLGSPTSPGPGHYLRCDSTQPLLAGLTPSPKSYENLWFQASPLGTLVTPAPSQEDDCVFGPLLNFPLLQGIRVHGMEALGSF

human G-CSF receptor [2] = biological target: T1, human G-CSF receptor; assay: cell-based or functional assay; remark: listed apart in the source

EC50, BaF3/hGCSF-R/pfos-lux luciferase assay (human G-CSF receptor [1]): 30 pM
B1: non-conjugated hG-CSF (Neupogen) (ligand)
chain: TPLGPASSLPQSFLLKCLEQVRKIQGDGAALQEKLCATYKLCHPEELVLLGHSLGIPWAPLSSCPSQALQLAGCLSQLHSGLFLYQGLLQALEGISPELGPTLDTLQLDVADFATTIWQQMEELGMAPALQPTQGAMPAFASAFQRRAGGVLVASHLQSFLEVSYRVLRHLAQP

EC50 (% of hG-CSF) conjugated to SPA-PEG 5000 (human G-CSF receptor [2]): 15 % of hG-CSF
B2: SPA-PEG 5000-conjugated hG-CSF K16R K34R K40R Q70K Q120K (ligand)
chain: B1 chain with K16R, K34R, K40R, Q70K, Q120K
modifications: SPA-PEG 5000 on the available PEGylation sites

EC50 (% of hG-CSF) conjugated to SPA-PEG 5000 (human G-CSF receptor [2]): 5 % of hG-CSF
B3: SPA-PEG 5000-conjugated hG-CSF K16R K34R K40R Q70K Q120K T133K (ligand)
chain: B1 chain with K16R, K34R, K40R, Q70K, Q120K, T133K
modifications: SPA-PEG 5000 on the available PEGylation sites

in vitro EC50 (% of non-conjugated hG-CSF (Neupogen)) (human G-CSF receptor [1]): 35 % of non-conjugated hG-CSF (Neupogen)
B4: SPA-PEG 5000-conjugated hG-CSF K16R K34R K40R (ligand)
chain: B1 chain with K16R, K34R, K40R
modifications: SPA-PEG 5000 on the available PEGylation sites

in vitro EC50 (% of non-conjugated hG-CSF (Neupogen)) (human G-CSF receptor [1]): 10 % of non-conjugated hG-CSF (Neupogen)
B5: SPA-PEG 12000-conjugated hG-CSF K16R K34R K40R (ligand)
chain: B1 chain with K16R, K34R, K40R
modifications: SPA-PEG 12000; mainly 2 and 3 PEG groups attached

EC50 (% of hG-CSF) conjugated to SPA-PEG 5000 (human G-CSF receptor [2]): 10 % of hG-CSF
B6: SPA-PEG 5000-conjugated hG-CSF K16R K34R K40R Q70K Q90K Q120K (ligand)
chain: B1 chain with K16R, K34R, K40R, Q70K, Q90K, Q120K
modifications: SPA-PEG 5000 on the available PEGylation sites

EC50 (% of hG-CSF) conjugated to SPA-PEG 5000 (human G-CSF receptor [2]): 5 % of hG-CSF
B7: SPA-PEG 5000-conjugated hG-CSF K16R K34R K40R Q90K Q120K T133K (ligand)
chain: B1 chain with K16R, K34R, K40R, Q90K, Q120K, T133K
modifications: SPA-PEG 5000 on the available PEGylation sites

EC50 (% of hG-CSF) conjugated to SPA-PEG 5000 (human G-CSF receptor [2]): 2 % of hG-CSF
B8: SPA-PEG 5000-conjugated hG-CSF K16R K34R K40R Q70K Q90K T105K (ligand)
chain: B1 chain with K16R, K34R, K40R, Q70K, Q90K, T105K
modifications: SPA-PEG 5000 on the available PEGylation sites

in vitro EC50 (% of non-conjugated hG-CSF (Neupogen)) (human G-CSF receptor [1]): 1 % of non-conjugated hG-CSF (Neupogen)
B9: SPA-PEG 20000-conjugated hG-CSF K16R K34R K40R (ligand)
chain: B1 chain with K16R, K34R, K40R
modifications: SPA-PEG 20000
